These results are taken from article PMC10643139.

What all share (assay): NanoBRET
A general note: Bioluminescence resonance energy transfer reports proximity on the nanometre scale.

Assay [1] deals with Halo-SSX-C (HaloTag fused to the SSX1 C-terminal region present in SS18-SSX1). The following applies: live HEK293T cells; mean ± S.E.M of n = 3 biological replicates; parent: est. 72; read off a plot.
For assay [2], the target named is Halo-SSX-C^E184* (SSX-C mutant lacking the last five amino acids). The following applies: live HEK293T cells; mean ± S.E.M of n = 3 biological replicates; parent: est. 40; read off a plot.
Assay [3] has as its target Halo-SSX-C^ΔRD (SSX-C with a deletion of the SSXRD). The following applies: live HEK293T cells; mean ± S.E.M of n = 3 biological replicates; parent: est. 19; read off a plot.

Consider “histone H2A fused to NanoLuc luciferase (NLuc-H2A) (from UniProt P0C0S8) K118R; K119R”, for which the response was 42 mBU in assay [1], 36 mBU in assay [2] and 16 mBU in assay [3].
